PMC12728192, “The dynamic lateral gate of the mitochondrial β-barrel biogenesis machinery is blocked by darobactin A” (Nature Communications, 2025)
pKd: −log10 of the molar value. Values joined by “and” are separate entries in the source; they are usually repeats but may differ in a detail not shown here. Equal values may be shown once. Read-outs that look alike come from different tables or passages of the source.

Tests used:
[1] = molecular target: Thermothelomyces thermophilus SAM complex (sorting and assembly machinery complex; Sam50:Sam35:Sam37, monomer) (Thermothelomyces thermophilus); experiment: MST; SAM complex labelled with Monolith RED-tris-NTA 2nd Generation, constant at 25 nM; serial dilution of peptide; size exclusion buffer (20 mM HEPES pH 8.0, 150 mM NaCl, 0.02% GDN); Monolith NT.115, premium capillaries
[2] = molecular target: Thermothelomyces thermophilus SAM complex (10xHis-TEV-Sam50, Sam35 (no tag), TwinStrep-TEV-GG-Sam37) (Thermothelomyces thermophilus); experiment: MST; SAM complex labelled with Monolith RED-tris-NTA 2nd Generation, constant at 25 nM; serial dilution of peptide; size-exclusion buffer (20 mM HEPES pH 8.0, 150 mM NaCl, 0.02% GDN); Monolith NT.115, premium capillaries; MO.Affinity Analysis; one Kd for each biological replicate from 2-3 technical replicates

Work on linear darobactin (peptide) yielded a pKd [1] of 2.92 to 3.31 and a pKd [2] of under 2.93.

darobactin A (peptide) was tested, and the pKd [1] was 6.53 and 6.42 to 7.02 and the pKd ([2]; mean of biological replicates) was 6.64.
